Starred links: 1 amine or outer side, 2 acyl side, 3 side chain; linkers in the order of their positions; H or OH if unused. Non-standard residues stand in square brackets, D forms with d. Groups on a side chain read outwards from the residue. No end group written: not given here. *: point of attachment. C18 diacid = O=C(O)CCCCCCCCCCCCCCCCC(=O)*; γGlu = O=C(O)[C@H](CCC(=O)[*:2])N[*:1]; AEEA = NCCOCCOCC(=O)O; Aib = CC(C)(N)C(=O)O
T1: anti-target CRF1R receptor (UniProt P34998 24-415, limits assumed)
T1 sequence (looked up): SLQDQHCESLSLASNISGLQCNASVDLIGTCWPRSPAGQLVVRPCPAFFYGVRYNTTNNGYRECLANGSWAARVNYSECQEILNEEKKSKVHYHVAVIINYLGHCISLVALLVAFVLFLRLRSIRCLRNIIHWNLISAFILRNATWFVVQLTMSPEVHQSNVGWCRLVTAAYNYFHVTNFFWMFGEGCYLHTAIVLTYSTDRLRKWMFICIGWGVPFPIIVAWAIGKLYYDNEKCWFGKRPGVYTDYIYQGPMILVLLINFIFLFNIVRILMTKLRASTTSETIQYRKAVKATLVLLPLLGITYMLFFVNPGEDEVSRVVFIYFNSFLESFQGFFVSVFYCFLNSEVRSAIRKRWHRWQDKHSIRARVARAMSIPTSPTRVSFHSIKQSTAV

B1: peptide of SEQ ID NO: 146 (peptide)
peptide: FTLSLDVPIKLK([AEEA-AEEA-γGlu-C18 diacid])QILLKQERQKKQRQKAKKNKQILERV-NH2
modifications: N-terminus assumed
SMILES: CC[C@H](C)[C@H](NC(=O)[C@H](CCC(N)=O)NC(=O)[C@H](CCCCNC(=O)COCCOCCNC(=O)COCCOCCNC(=O)CC[C@H](NC(=O)CCCCCCCCCCCCCCCCC(=O)O)C(=O)O)NC(=O)[C@H](CC(C)C)NC(=O)[C@H](CCCCN)NC(=O)[C@@H](NC(=O)[C@@H]1CCCN1C(=O)[C@@H](NC(=O)[C@H](CC(=O)O)NC(=O)[C@H](CC(C)C)NC(=O)[C@H](CO)NC(=O)[C@H](CC(C)C)NC(=O)[C@@H](NC(=O)[C@@H](N)Cc1ccccc1)[C@@H](C)O)C(C)C)[C@@H](C)CC)C(=O)N[C@@H](CC(C)C)C(=O)N[C@@H](CC(C)C)C(=O)N[C@@H](CCCCN)C(=O)N[C@@H](CCC(N)=O)C(=O)N[C@@H](CCC(=O)O)C(=O)N[C@@H](CCCNC(=N)N)C(=O)N[C@@H](CCC(N)=O)C(=O)N[C@@H](CCCCN)C(=O)N[C@@H](CCCCN)C(=O)N[C@@H](CCC(N)=O)C(=O)N[C@@H](CCCNC(=N)N)C(=O)N[C@@H](CCC(N)=O)C(=O)N[C@@H](CCCCN)C(=O)N[C@@H](C)C(=O)N[C@@H](CCCCN)C(=O)N[C@@H](CCCCN)C(=O)N[C@@H](CC(N)=O)C(=O)N[C@@H](CCCCN)C(=O)N[C@@H](CCC(N)=O)C(=O)N[C@H](C(=O)N[C@@H](CC(C)C)C(=O)N[C@@H](CCC(=O)O)C(=O)N[C@@H](CCCNC(=N)N)C(=O)N[C@H](C(N)=O)C(C)C)[C@@H](C)CC
B2: peptide of SEQ ID NO: 136 (peptide)
peptide: IVLSLD[dV]PIKLK([AEEA-AEEA-γGlu-C18 diacid])QILLKQERQKK[Aib]RQKAEKNKQILAQV-NH2
modifications: N-terminus assumed
SMILES: CC[C@H](C)[C@H](N)C(=O)N[C@H](C(=O)N[C@@H](CC(C)C)C(=O)N[C@@H](CO)C(=O)N[C@@H](CC(C)C)C(=O)N[C@@H](CC(=O)O)C(=O)N[C@@H](C(=O)N1CCC[C@H]1C(=O)N[C@H](C(=O)N[C@@H](CCCCN)C(=O)N[C@@H](CC(C)C)C(=O)N[C@@H](CCCCNC(=O)COCCOCCNC(=O)COCCOCCNC(=O)CC[C@H](NC(=O)CCCCCCCCCCCCCCCCC(=O)O)C(=O)O)C(=O)N[C@@H](CCC(N)=O)C(=O)N[C@H](C(=O)N[C@@H](CC(C)C)C(=O)N[C@@H](CC(C)C)C(=O)N[C@@H](CCCCN)C(=O)N[C@@H](CCC(N)=O)C(=O)N[C@@H](CCC(=O)O)C(=O)N[C@@H](CCCNC(=N)N)C(=O)N[C@@H](CCC(N)=O)C(=O)N[C@@H](CCCCN)C(=O)N[C@@H](CCCCN)C(=O)NC(C)(C)C(=O)N[C@@H](CCCNC(=N)N)C(=O)N[C@@H](CCC(N)=O)C(=O)N[C@@H](CCCCN)C(=O)N[C@@H](C)C(=O)N[C@@H](CCC(=O)O)C(=O)N[C@@H](CCCCN)C(=O)N[C@@H](CC(N)=O)C(=O)N[C@@H](CCCCN)C(=O)N[C@@H](CCC(N)=O)C(=O)N[C@H](C(=O)N[C@@H](CC(C)C)C(=O)N[C@@H](C)C(=O)N[C@@H](CCC(N)=O)C(=O)N[C@H](C(N)=O)C(C)C)[C@@H](C)CC)[C@@H](C)CC)[C@@H](C)CC)C(C)C)C(C)C
B3: peptide of SEQ ID NO: 99 (peptide)
peptide: IVLSLDVPIKLK([AEEA-AEEA-γGlu-C18 diacid])KILLKQERQKK[Aib]REQAEKNKQILAQV-NH2
modifications: N-terminus assumed
SMILES: CC[C@H](C)[C@H](N)C(=O)N[C@H](C(=O)N[C@@H](CC(C)C)C(=O)N[C@@H](CO)C(=O)N[C@@H](CC(C)C)C(=O)N[C@@H](CC(=O)O)C(=O)N[C@H](C(=O)N1CCC[C@H]1C(=O)N[C@H](C(=O)N[C@@H](CCCCN)C(=O)N[C@@H](CC(C)C)C(=O)N[C@@H](CCCCNC(=O)COCCOCCNC(=O)COCCOCCNC(=O)CC[C@H](NC(=O)CCCCCCCCCCCCCCCCC(=O)O)C(=O)O)C(=O)N[C@@H](CCCCN)C(=O)N[C@H](C(=O)N[C@@H](CC(C)C)C(=O)N[C@@H](CC(C)C)C(=O)N[C@@H](CCCCN)C(=O)N[C@@H](CCC(N)=O)C(=O)N[C@@H](CCC(=O)O)C(=O)N[C@@H](CCCNC(=N)N)C(=O)N[C@@H](CCC(N)=O)C(=O)N[C@@H](CCCCN)C(=O)N[C@@H](CCCCN)C(=O)NC(C)(C)C(=O)N[C@@H](CCCNC(=N)N)C(=O)N[C@@H](CCC(=O)O)C(=O)N[C@@H](CCC(N)=O)C(=O)N[C@@H](C)C(=O)N[C@@H](CCC(=O)O)C(=O)N[C@@H](CCCCN)C(=O)N[C@@H](CC(N)=O)C(=O)N[C@@H](CCCCN)C(=O)N[C@@H](CCC(N)=O)C(=O)N[C@H](C(=O)N[C@@H](CC(C)C)C(=O)N[C@@H](C)C(=O)N[C@@H](CCC(N)=O)C(=O)N[C@H](C(N)=O)C(C)C)[C@@H](C)CC)[C@@H](C)CC)[C@@H](C)CC)C(C)C)C(C)C
B4: peptide of SEQ ID NO: 132 (peptide)
peptide: IVLSLD[dV]PIKLK([AEEA-AEEA-γGlu-C18 diacid])QILLEQERQK[Aib]QREQAEKNKQILERV-NH2
modifications: N-terminus assumed
SMILES: CC[C@H](C)[C@H](N)C(=O)N[C@H](C(=O)N[C@@H](CC(C)C)C(=O)N[C@@H](CO)C(=O)N[C@@H](CC(C)C)C(=O)N[C@@H](CC(=O)O)C(=O)N[C@@H](C(=O)N1CCC[C@H]1C(=O)N[C@H](C(=O)N[C@@H](CCCCN)C(=O)N[C@@H](CC(C)C)C(=O)N[C@@H](CCCCNC(=O)COCCOCCNC(=O)COCCOCCNC(=O)CC[C@H](NC(=O)CCCCCCCCCCCCCCCCC(=O)O)C(=O)O)C(=O)N[C@@H](CCC(N)=O)C(=O)N[C@H](C(=O)N[C@@H](CC(C)C)C(=O)N[C@@H](CC(C)C)C(=O)N[C@@H](CCC(=O)O)C(=O)N[C@@H](CCC(N)=O)C(=O)N[C@@H](CCC(=O)O)C(=O)N[C@@H](CCCNC(=N)N)C(=O)N[C@@H](CCC(N)=O)C(=O)N[C@@H](CCCCN)C(=O)NC(C)(C)C(=O)N[C@@H](CCC(N)=O)C(=O)N[C@@H](CCCNC(=N)N)C(=O)N[C@@H](CCC(=O)O)C(=O)N[C@@H](CCC(N)=O)C(=O)N[C@@H](C)C(=O)N[C@@H](CCC(=O)O)C(=O)N[C@@H](CCCCN)C(=O)N[C@@H](CC(N)=O)C(=O)N[C@@H](CCCCN)C(=O)N[C@@H](CCC(N)=O)C(=O)N[C@H](C(=O)N[C@@H](CC(C)C)C(=O)N[C@@H](CCC(=O)O)C(=O)N[C@@H](CCCNC(=N)N)C(=O)N[C@H](C(N)=O)C(C)C)[C@@H](C)CC)[C@@H](C)CC)[C@@H](C)CC)C(C)C)C(C)C
B5: peptide of SEQ ID NO: 100 (peptide)
peptide: IVLSLDVPIKLK([AEEA-AEEA-γGlu-C18 diacid])KILLKQERQKK[Aib]REQAETN[Aib]QILAQV-NH2
modifications: N-terminus assumed
SMILES: CC[C@H](C)[C@H](N)C(=O)N[C@H](C(=O)N[C@@H](CC(C)C)C(=O)N[C@@H](CO)C(=O)N[C@@H](CC(C)C)C(=O)N[C@@H](CC(=O)O)C(=O)N[C@H](C(=O)N1CCC[C@H]1C(=O)N[C@H](C(=O)N[C@@H](CCCCN)C(=O)N[C@@H](CC(C)C)C(=O)N[C@@H](CCCCNC(=O)COCCOCCNC(=O)COCCOCCNC(=O)CC[C@H](NC(=O)CCCCCCCCCCCCCCCCC(=O)O)C(=O)O)C(=O)N[C@@H](CCCCN)C(=O)N[C@H](C(=O)N[C@@H](CC(C)C)C(=O)N[C@@H](CC(C)C)C(=O)N[C@@H](CCCCN)C(=O)N[C@@H](CCC(N)=O)C(=O)N[C@@H](CCC(=O)O)C(=O)N[C@@H](CCCNC(=N)N)C(=O)N[C@@H](CCC(N)=O)C(=O)N[C@@H](CCCCN)C(=O)N[C@@H](CCCCN)C(=O)NC(C)(C)C(=O)N[C@@H](CCCNC(=N)N)C(=O)N[C@@H](CCC(=O)O)C(=O)N[C@@H](CCC(N)=O)C(=O)N[C@@H](C)C(=O)N[C@@H](CCC(=O)O)C(=O)N[C@H](C(=O)N[C@@H](CC(N)=O)C(=O)NC(C)(C)C(=O)N[C@@H](CCC(N)=O)C(=O)N[C@H](C(=O)N[C@@H](CC(C)C)C(=O)N[C@@H](C)C(=O)N[C@@H](CCC(N)=O)C(=O)N[C@H](C(N)=O)C(C)C)[C@@H](C)CC)[C@@H](C)O)[C@@H](C)CC)[C@@H](C)CC)C(C)C)C(C)C

What was measured:
[1] = molecular target: T1, anti-target CRF1R receptor; test: cell-based or functional assay
[2] = molecular target: rat CRF2R α receptor (rat, UniProt P47866 20-411); test: cell-based or functional assay
Chain of rat CRF2R α receptor (P47866 20-411): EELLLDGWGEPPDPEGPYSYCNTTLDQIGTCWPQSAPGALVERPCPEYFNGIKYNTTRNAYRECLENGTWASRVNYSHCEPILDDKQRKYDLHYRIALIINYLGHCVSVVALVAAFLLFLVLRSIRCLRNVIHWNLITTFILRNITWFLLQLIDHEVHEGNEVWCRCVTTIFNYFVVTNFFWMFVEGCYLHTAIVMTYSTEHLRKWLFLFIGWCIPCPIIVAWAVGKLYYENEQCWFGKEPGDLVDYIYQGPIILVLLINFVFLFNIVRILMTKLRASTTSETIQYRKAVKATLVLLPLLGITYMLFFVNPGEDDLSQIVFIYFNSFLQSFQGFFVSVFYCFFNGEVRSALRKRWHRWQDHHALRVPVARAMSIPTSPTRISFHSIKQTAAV

Row | Binder | EC50[nM] 0% HSA (cAMP, CRF1R-overexpression CHO cells) [1] | Emax (%) (cAMP, CRF1R-overexpression CHO cells) [1] | EC50 [nM], 0% HSA (cAMP, A7R5 cells) [2]
1 | B1 | > 1000 nM | 1.03% | 0.22 nM
2 | B2 | > 1000 nM | 21.8% | 0.38 nM
3 | B3 | > 1000 nM | 3.25% | 0.62 nM
4 | B4 | > 1000 nM | 36.9% | 0.79 nM
5 | B5 | > 1000 nM | 5.06% | 7.52 nM
